Reference: IntAct's records for PubMed 31663849

B1: Secretagogin (Homo sapiens), O76038 (parent)
chain: MDSSREPTLGRLDAAGFWQVWQRFDADEKGYIEEKELDAFFLHMLMKLGTDDTVMKANLHKVKQQFMTTQDASKDGRIRMKELAGMFLSEDENFLLLFRRENPLDSSVEFMQIWRKYDADSSGFISAAELRNFLRDLFLHHKKAISEAKLEEYTGTMMKIFDRNKDGRLDLNDLARILALQENFLLQFKMDACSTEERKRDFEKIFAYYDVSKTGALEGPEVDGFVKDMMELVQPSISGVDLDKFREILLRHCDVNKDGKIQKSELALCLGLKINP

Variants of: B1
Conditions: with snp25_mouse Snap25, P60879
Chain of snp25_mouse Snap25, P60879 (P60879 whole entry, looked up): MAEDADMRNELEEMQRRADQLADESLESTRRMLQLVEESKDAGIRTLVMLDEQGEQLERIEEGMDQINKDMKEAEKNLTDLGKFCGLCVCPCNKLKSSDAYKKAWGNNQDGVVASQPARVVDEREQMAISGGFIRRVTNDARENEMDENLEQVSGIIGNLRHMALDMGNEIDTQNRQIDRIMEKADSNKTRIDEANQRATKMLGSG

**Q.** How did the “effect of a mutation on the interaction” value turn out when MDSSREPTLGRLDAAGFWQVWQRFDADEKGYIEEKELDAFFLHMLMKLGTDDTVMKANLHKVKQQFMTTQDASKDGHIRMKELAGMFLSEDENFLLLFRRENPLDSSVEFMQIWRKYDADSSGFISAAELRNFLRDLFLHHKKAISEAKLEEYTGTMMKIFDRNKDGRLDLNDLARILALQENFLLQFKMDACSTEERKRDFEKIFAYYDVSKTGALEGPEVDGFVKDMMELVQPSISGVDLDKFREILLRHCDVNKDGKIQKSELALCLGLKINP [R77H] was run?
**A.** with no effect
